What is called Kd is a measure of binding affinity in units of concentration.

These results are taken from patent US20130115212A1 (LUNDBECK A S, published 2013).

Assay [1] deals with SorLA extracellular domain (immobilized on the Biacore chip) (Homo sapiens) (UniProt Q92673). Briefly: SPR, GFRα1 over immobilized SorLA extracellular domain. For orientation: Surface plasmon resonance follows binding to a sensor surface in real time, without labels.
Assay [2] shares this target. Briefly: SPR, immobilized SorLA.
Assay [3] has the same target. Briefly: SPR (Biacore), SorLA immobilized; series of 20, 50, 100 and 200 nM.
Assay [4] has as its target SorLA expressed on cells (stably transfected HEK293 cells; SY5Y neuroblastoma cells, endogenous or overexpressed) (Homo sapiens) (UniProt Q92673). Briefly: FRET on non-permeabilized fixed cells, SorLA acceptor, GFRα1 donor.
The target in assay [5] is T1, SorLA extracellular domain (immobilized on the Biacore chip) (Homo sapiens, UniProt Q92673 82-2137).
T1 construct: also called immobilized SorLA; LR11
Briefly: SPR, immobilized SorLA.

The target in assay [6] is T1, SorLA extracellular domain (immobilized …). Briefly: SPR (Biacore), SorLA immobilized; GST fusion protein, concentration not given. An excerpt:
(A) fusion proteins between GST and the GDNF propeptide (GDNFpropep), the N-terminal 38 amino acids of mature GDNF (GDNFN-term), or the GDNF propeptide followed by the first 38 amino acids of mature GDNF (GDNFN-term propep) binding to immobilized SorLA. GST alone is included as negative control. (B) a peptide encompassing the first 38 amino acids of mature GDNF binds to SorLA in concentration-dependent manner.

For assay [7] the target is unchanged. Briefly: SPR (Biacore), SorLA immobilized; SorLApro 10 uM by the legend, injected before GDNF in the inhibition experiment. On the procedure: (§1) (A) The domain structure of SorLA is depicted. (B) GDNF binds to immobilized SorLA in a concentration-dependent manner as shown by SPR. […] (C) SorLA binding is selective for GDNF and not the other GDNF family ligands, artemin, neuturin, and persephin. The neurotrophic factor concentrations used are 20 nM. (D) The interaction is mediated by the mature part of GDNF and not the GDNF propeptide (GDNFpro). Sensorgrams of 100 nM ligand concentration are shown. […] (G-H) Internalization of 50 nM GDNF by 293 cells or 293 cells stably expressing SorLA. Internalized GDNF (green) was visualized by immunofluorescense. (I) GDNF internalization was inhibited by excess neurotensin (NT, 20 μM).

The target is the same in assay [8]. Briefly: SPR, GDNF over immobilized SorLA; upper end of the range. The protocol:
as §1

The target is the same in assay [9]. Briefly: SPR, GDNF over immobilized SorLA; lower end of the range. On the procedure: as §1
Assay [10] shares this target. Briefly: SPR, immobilized SorLA (title of Fig. 17).

Where no end group is shown, it is not given here.

T1 sequence (Q92673 82-2137 limits assumed): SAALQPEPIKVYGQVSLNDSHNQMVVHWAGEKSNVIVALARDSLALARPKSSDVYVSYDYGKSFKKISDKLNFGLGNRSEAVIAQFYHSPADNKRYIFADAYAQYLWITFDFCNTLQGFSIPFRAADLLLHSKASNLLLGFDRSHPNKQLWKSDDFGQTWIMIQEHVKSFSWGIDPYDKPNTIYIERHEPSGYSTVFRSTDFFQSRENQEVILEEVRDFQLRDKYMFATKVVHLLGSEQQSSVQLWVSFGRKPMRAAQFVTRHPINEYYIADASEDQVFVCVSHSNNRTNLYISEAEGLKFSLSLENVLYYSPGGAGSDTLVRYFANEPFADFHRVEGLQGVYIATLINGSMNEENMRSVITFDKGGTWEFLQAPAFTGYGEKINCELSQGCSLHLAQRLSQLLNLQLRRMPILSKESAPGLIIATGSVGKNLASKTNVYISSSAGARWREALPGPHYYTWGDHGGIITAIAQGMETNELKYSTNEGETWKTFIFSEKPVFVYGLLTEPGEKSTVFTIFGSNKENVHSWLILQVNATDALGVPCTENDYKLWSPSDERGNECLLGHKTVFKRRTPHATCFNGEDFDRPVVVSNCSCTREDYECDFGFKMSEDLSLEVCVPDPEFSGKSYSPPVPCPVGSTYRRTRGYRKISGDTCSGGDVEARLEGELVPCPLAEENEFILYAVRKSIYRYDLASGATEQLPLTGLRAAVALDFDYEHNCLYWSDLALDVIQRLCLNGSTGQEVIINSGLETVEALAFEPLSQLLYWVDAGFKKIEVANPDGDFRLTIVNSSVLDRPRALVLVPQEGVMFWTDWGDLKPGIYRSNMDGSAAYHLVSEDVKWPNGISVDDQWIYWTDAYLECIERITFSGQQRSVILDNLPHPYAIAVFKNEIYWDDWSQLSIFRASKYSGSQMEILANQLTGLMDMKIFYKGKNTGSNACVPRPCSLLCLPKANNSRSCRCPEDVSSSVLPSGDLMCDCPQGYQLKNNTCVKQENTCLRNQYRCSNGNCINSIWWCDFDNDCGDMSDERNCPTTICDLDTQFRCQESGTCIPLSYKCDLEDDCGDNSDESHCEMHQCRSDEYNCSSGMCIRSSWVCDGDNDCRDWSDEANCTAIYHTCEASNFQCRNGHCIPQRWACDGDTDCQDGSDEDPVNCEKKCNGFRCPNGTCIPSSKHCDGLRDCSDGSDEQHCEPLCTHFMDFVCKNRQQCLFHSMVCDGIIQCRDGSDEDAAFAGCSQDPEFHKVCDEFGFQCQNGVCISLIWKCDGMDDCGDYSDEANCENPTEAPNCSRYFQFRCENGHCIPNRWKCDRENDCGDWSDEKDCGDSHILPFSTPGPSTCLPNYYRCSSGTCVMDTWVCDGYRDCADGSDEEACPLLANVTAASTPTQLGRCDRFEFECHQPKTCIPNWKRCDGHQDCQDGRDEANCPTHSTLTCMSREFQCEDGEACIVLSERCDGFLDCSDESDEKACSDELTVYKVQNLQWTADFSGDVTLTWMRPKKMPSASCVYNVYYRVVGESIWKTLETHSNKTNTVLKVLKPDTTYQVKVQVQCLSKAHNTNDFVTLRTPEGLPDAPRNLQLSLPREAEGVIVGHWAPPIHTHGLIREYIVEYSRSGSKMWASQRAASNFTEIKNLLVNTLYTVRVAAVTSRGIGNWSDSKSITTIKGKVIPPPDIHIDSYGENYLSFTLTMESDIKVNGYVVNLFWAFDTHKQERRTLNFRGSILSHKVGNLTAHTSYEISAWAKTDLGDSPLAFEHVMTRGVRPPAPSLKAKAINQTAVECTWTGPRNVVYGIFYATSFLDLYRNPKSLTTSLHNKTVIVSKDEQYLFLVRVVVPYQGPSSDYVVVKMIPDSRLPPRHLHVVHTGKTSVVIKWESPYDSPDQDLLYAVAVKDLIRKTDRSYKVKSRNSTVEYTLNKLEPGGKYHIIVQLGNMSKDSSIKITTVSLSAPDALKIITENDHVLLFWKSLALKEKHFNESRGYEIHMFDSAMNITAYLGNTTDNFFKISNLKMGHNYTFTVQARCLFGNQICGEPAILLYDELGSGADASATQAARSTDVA
SorLA extracellular domain (immobilized on the Biacore chip) (Homo sapiens), sequence (Q92673 82-2137 limits assumed): as above
SorLA expressed on cells (stably transfected HEK293 cells; SY5Y neuroblastoma cells, endogenous or overexpressed) (Homo sapiens), sequence (Q92673 82-2214 limits assumed): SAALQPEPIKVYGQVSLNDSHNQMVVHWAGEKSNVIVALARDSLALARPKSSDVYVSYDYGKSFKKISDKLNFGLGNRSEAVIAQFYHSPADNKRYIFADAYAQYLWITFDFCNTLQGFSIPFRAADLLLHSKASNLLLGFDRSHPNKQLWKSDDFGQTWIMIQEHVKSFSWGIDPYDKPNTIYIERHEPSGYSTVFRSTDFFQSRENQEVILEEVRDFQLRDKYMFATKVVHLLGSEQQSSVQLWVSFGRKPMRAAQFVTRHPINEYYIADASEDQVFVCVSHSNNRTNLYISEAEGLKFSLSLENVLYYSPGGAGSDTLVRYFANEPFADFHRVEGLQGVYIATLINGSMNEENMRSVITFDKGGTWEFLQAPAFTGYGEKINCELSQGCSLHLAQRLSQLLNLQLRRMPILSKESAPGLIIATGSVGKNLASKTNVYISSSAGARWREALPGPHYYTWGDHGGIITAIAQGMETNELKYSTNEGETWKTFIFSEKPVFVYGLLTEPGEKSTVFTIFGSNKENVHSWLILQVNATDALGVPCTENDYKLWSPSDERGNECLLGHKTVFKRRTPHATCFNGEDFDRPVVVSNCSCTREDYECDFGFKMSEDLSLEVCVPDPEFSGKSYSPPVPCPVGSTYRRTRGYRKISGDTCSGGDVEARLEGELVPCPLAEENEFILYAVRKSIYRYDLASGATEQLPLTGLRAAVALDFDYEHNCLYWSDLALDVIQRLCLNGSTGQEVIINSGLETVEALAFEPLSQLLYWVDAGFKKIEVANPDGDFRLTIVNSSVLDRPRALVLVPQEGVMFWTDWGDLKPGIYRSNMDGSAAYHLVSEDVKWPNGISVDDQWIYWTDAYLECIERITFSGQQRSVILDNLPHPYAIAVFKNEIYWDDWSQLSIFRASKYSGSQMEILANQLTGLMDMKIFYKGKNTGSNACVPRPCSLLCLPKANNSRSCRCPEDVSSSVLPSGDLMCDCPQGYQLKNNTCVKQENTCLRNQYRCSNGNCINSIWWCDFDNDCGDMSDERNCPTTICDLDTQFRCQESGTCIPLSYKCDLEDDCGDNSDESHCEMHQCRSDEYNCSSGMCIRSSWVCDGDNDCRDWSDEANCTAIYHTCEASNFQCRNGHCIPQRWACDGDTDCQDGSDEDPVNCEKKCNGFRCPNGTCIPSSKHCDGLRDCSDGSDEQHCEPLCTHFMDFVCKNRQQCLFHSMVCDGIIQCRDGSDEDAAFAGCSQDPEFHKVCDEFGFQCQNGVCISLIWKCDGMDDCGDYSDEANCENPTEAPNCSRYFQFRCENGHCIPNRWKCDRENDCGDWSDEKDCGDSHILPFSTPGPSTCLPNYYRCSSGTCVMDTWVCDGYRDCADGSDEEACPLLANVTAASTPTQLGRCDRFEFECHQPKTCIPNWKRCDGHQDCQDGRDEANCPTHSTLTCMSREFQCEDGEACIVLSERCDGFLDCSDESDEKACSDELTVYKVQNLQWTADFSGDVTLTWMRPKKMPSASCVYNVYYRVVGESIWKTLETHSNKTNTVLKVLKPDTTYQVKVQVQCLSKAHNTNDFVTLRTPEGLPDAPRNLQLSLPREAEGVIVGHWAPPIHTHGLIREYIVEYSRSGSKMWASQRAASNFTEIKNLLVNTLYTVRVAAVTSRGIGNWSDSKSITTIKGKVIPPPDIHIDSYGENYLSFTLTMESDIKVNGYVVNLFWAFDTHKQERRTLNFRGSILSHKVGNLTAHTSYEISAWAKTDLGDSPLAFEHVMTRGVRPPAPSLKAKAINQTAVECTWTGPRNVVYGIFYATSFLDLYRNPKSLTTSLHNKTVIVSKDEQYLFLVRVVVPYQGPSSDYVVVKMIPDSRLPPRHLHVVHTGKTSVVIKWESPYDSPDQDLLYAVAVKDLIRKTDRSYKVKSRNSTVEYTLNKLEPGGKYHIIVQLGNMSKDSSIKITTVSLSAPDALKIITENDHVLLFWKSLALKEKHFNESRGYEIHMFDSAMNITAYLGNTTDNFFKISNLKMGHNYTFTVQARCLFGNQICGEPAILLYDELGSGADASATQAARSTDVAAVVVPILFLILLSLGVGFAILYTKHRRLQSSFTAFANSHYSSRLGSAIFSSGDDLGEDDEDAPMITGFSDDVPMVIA

Consider “soluble full length GFRα1 (from UniProt P56159 25-429) (receptor)”, for which the Kd amounted to 6 nM in assay [1], 12 nM in assay [2] and 10 nM in assay [3].
Take “GFRα1 expressed on cells (stably transfected HEK293 cells) (from UniProt P56159 25-429) (receptor)”: the mean Eapp% in assay [4] is 16%.
With “N-terminal truncated soluble GFRα1 variant lacking domain 1 (from UniProt P56159 145-429) (receptor)”, the Kd in [2] is 120 nM. This lies in the sub-micromolar range.

B1: persephin (ligand, UniProt O60542 61-156, looked up)
chain: ALSGPCQLWSLTLSVAELGLGYASEEKVIFRYCAGSCPRGARTQHGLALARLQGQGRAHGGPCCRPTRYTDVAFLDDRHRWQRLPQLSAAACGCGG
notes: also called PSPN
As to B1, in assay [5], the binding result is recorded as “no binding (tested: 20 nM)”.

B2: neuturin (neurturin) (ligand, UniProt Q99748 96-197, looked up)
chain: ARLGARPCGLRELEVRVSELGLGYASDETVLFRYCAGACEAAARVYDLGLRRLRQRRRLRRERVRAQPCCRPTAYEDEVSFLDAHSRYHTVHELSARECACV
notes: also called NRTN
As to B2, the binding result in assay [5] is on record as “no binding (tested: 20 nM)”.

B3: GDNFpropep (other)
fusion protein: FPLPAGKRPPEAPAEDRSLGRRRAPFALSSDSNMPEDYPDQFDDVMDFIQATIKRLKR
notes: also called GST fusion of the GDNF propeptide
On to B3, for which the binding result in assay [6] is “no binding”.

B4: GDNF propeptide (peptide)
peptide: FPLPAGKRPPEAPAEDRSLGRRRAPFALSSDSNMPEDYPDQFDDVMDFIQATIKRLKR
Consider B4, for which the binding result in assay [5] is “no binding (tested: 100 nM)”.

B5: GDNFN-term propep (other, not shown: a dimerising Fc or GST; large carriers; small tags and cut ends)
chain: FPLPAGKRPPEAPAEDRSLGRRRAPFALSSDSNMPEDYPDQFDDVMDFIQATIKRLKRSPDKQMAVLPRRERNRQAAAANPENSRGKGRRGQRGKN
notes: also called GST fusion of the GDNF propeptide followed by the first 38 amino acids of mature GDNF
For B5, in [6], the binding result was “binds”.

B6: SorLA propeptide (peptide)
peptide: EVWTQRLHGGSAPLPQDRGFLVVQGDPRELRLWARGDARGASRADEKPLRRKR
On to B6, for which the binding result in assay [7] is reported as “binds”.

B7: Glia cell-derived neurotrophic factor (GDNF) (ligand)
chain: SPDKQMAVLPRRERNRQAAAANPENSRGKGRRGQRGKNRGCVLTAIHLNVTDLGLGYETKEELIFRYCSGSCDAAETTYDKILKNLSRNRRLVSDKVGQACCRPIAFDDDLSFLDDNLVYHILRKHSAKRCGCI
notes: also called mature GDNF
For B7, the Kd in [8] is no more than 8 nM; in assay [9] it was no less than 3 nM.

B8: GDNFN-term (other)
chain: SPDKQMAVLPRRERNRQAAAANPENSRGKGRRGQRGKN
modifications: also: GST fusion partner (letters not given here)
notes: also called GST fusion of the N-terminal 38 amino acids of mature GDNF; not shown: GST fusion partner and any linker to it
For the molecule B8, the binding result in assay [6] is on record as “binds”.

B9: peptide encompassing the first 38 amino acids of mature GDNF (peptide)
peptide: SPDKQMAVLPRRERNRQAAAANPENSRGKGRRGQRGKN
notes: also called N-terminal 38 amino acids of mature GDNF
For B9, the binding result in assay [10] is listed as “binds”.

B10: artemin (ligand, UniProt Q5T4W7 108-220, looked up)
chain: AGGPGSRARAAGARGCRLRSQLVPVRALGLGHRSDELVRFRFCSGSCRRARSPHDLSLASLLGAGALRPPPGSRPVSQPCCRPTRYEAVSFMDVNSTWRTVDRLSATACGCLG
notes: also called ARTN
For the molecule B10, the binding result in [5] is listed as “no binding (tested: 20 nM)”.
